{"source": "paper PMC12617615", "about": "“Decoding substrate recognition in malapain-2 through structural and mutational insights” (Computational and Structural Biotechnology Journal, 2025)", "key": {"[1]": {"test_system": "Cc1cc(=O)oc2cc(NC(=O)[C@H](CCCNC(=N)N)NC(=O)[C@H](CC(C)C)NC(=O)OCc3ccccc3)ccc12", "experiment": "purified protein", "details": "100 mM sodium acetate pH 5.0, 10 mM DTT, 37 °C, 20 nM enzyme, substrate range 0.1–100 μM", "excerpt": "(§1) fluorogenic AMC release, Michaelis-Menten on malapain-2 (MP-2)"}, "[2]": {"test_system": "Cc1cc(=O)oc2cc(NC(=O)[C@H](CCCNC(=N)N)NC(=O)[C@H](CCCNC(=N)N)NC(=O)OCc3ccccc3)ccc12", "experiment": "purified protein", "details": "100 mM sodium acetate pH 5.0, 10 mM DTT, 37 °C, 20 nM enzyme, substrate range 0.1–100 μM", "excerpt": "as §1"}}, "data": [{"substance": "malapain-2 (MP-2) (Plasmodium malariae)", "values": [{"measurement": "Km", "setting": "[1]", "result": "111.2 ± 1.2", "unit": "µM"}, {"measurement": "Km", "setting": "[2]", "result": "846.4 ± 0.6", "unit": "µM"}]}]}
